Experimental data published in the supplement of paper PMC11246515.
± gives the standard deviation of the averaged measurements.

Test: total protein half-life in vivo (active degradation + dilution); higher = more stable protein
[1] = E. coli NCM3722 delta-clpP delta-lon delta-hslV, growth: N-lim chemostat, doubling time 6 h
[2] = E. coli NCM3722 delta-clpP, growth: N-lim chemostat, doubling time 6 h
[3] = E. coli NCM3722 delta-smpB, growth: N-lim chemostat, doubling time 6 h
[4] = wild type E. coli NCM3722, growth: C-lim chemostat, doubling time 3 h
[5] = wild type E. coli NCM3722, growth: C-lim chemostat, doubling time 6 h
[6] = wild type E. coli NCM3722, growth: C-lim chemostat, doubling time 12 h
[7] = wild type E. coli NCM3722, growth: P-lim chemostat, doubling time 6 h
[8] = E. coli NCM3722 delta-hslV, growth: N-lim chemostat, doubling time 6 h
[9] = wild type E. coli NCM3722, growth: N-lim chemostat, doubling time 6 h
[10] = wild type E. coli NCM3722, growth: N-lim chemostat, doubling time 12 h
[11] = wild type E. coli NCM3722, growth: P-lim chemostat, doubling time 12 h
[12] = E. coli NCM3722 delta-lon, growth: N-lim chemostat, doubling time 6 h

Sequence | total protein half-life in vivo [1] | total protein half-life in vivo [2] | total protein half-life in vivo [3] | total protein half-life in vivo [4] | total protein half-life in vivo [5] | total protein half-life in vivo [6] | total protein half-life in vivo [7] | total protein half-life in vivo [8] | total protein half-life in vivo [9] | total protein half-life in vivo [10] | total protein half-life in vivo [11] | total protein half-life in vivo [12]
MNNLPLLNDLRVFMLVARRAGFAAVAEELGVSPAFVSKRIALLEQTLNVVLLHRTTRRVTITEEGERIYEWAQRILQDVGQMMDELSDVRQVPQGMLRIISSFGFGRQVVAPALLALAKAYPQLELRFDVEDRLVDLVNEGVDLDIRIGDDIAPNLIARKLATNYRILCASPEFIAQHGAPKHLTDLSALPCLVIKERDHPFGVWQLRNKEGPHAIKVTGPLSSNHGEIVHQWCLDGQGIALRSWWDVSENIASGHLVQVLPEYYQPANVWAVYVSRLATSAKVRITVEFLRQYFAEHYPNFSLEHA | 5.43 ± 0.67 h | 1.82 ± 0.43 h | 1.16 h | 0.948 ± 0.17 h | 2.24 ± 0.21 h | 3.54 ± 0.1 h | 0.535 h | – | – | – | – | –
MDLSQLTPRRPYLLRAFYEWLLDNQLTPHLVVDVTLPGVQVPMEYARDGQIVLNIAPRAVGNLELANDEVRFNARFGGIPRQVSVPLAAVLAIYARENGAGTMFEPEAAYDEDTSIMNDEEASADNETVMSVIDGDKPDHDDDTHPDDEPPQPPRGGRPALRVVK [P0AFZ3] | 5.705 ± 0.0087 h | 4.58 ± 0.2 h | 3.43 ± 0.19 h | 2.69 ± 0.14 h | 5.89 ± 0.079 h | 7.4 ± 0.38 h | 3.73 ± 0.69 h | 3.9 ± 0.61 h | 3.26 h | 6.17 ± 3 h | 7.51 ± 0.57 h | –
MKFSELWLREWVNPAIDSDALANQITMAGLEVDGVEPVAGSFHGVVVGEVVECAQHPNADKLRVTKVNVGGDRLLDIVCGAPNCRQGLRVAVATIGAVLPGDFKIKAAKLRGEPSEGMLCSFSELGISDDHSGIIELPADAPIGTDIREYLKLDDNTIEISVTPNRADCLGIIGVARDVAVLNQLPLVQPEIVPVGATIDDTLPITVEAPEACPRYLGRVVKGINVKAPTPLWMKEKLRRCGIRSIDAVVDVTNYVLLELGQPMHAFDKDRIEGGIVVRMAKEGETLVLLDGTEAKLNADTLVIADHNKALAMGGIFGGEHSGVNDETQNVLLECAFFSPLSITGRARRHGLHTDASHRYERGVDPALQHKAMERATRLLIDICGGEAGPVIDITNEATLPKRATITLRRSKLDRLIGHHIADEQVTDILRRLGCEVTEGKDEWQAVAPSWRFDMEIEEDLVEEVARVYGYNNIPDEPVQASLIMGTHREADLSLKRVKTLLNDKGYQEVITYSFVDPKVQQMIHPGVEALLLPSPISVEMSAMRLSLWTGLLATVVYNQNRQQNRVRIFESGLRFVPDTQAPLGIRQDLMLAGVICGNRYEEHWNLAKETVDFYDLKGDLESVLDLTGKLNEVEFRAEANPALHPGQSAAIYLKGERIGFVGVVHPELERKLDLNGRTLVFELEWNKLADRVVPQAREISRFPANRRDIAVVVAENVPAADILSECKKVGVNQVVGVNLFDVYRGKGVAEGYKSLAISLILQDTSRTLEEEEIAATVAKCVEALKERFQASLRD | 6.244 ± 0.025 h | 5.88 ± 0.61 h | 5.33 ± 0.063 h | 3.37 ± 0.066 h | 6.34 ± 0.37 h | 12.5 ± 0.56 h | 6.01 ± 0.4 h | 5.77 ± 0.16 h | 5.41 ± 0.088 h | 10.4 ± 0.24 h | 12 ± 0.58 h | 5.98 ± 0.44 h
MQVLHVCSEMFPLLKTGGLADVIGALPAAQIADGVDARVLLPAFPDIRRGVTDAQVVSRRDTFAGHITLLFGHYNGVGIYLIDAPHLYDRPGSPYHDTNLFAYTDNVLRFALLGWVGAEMASGLDPFWRPDVVHAHDWHAGLAPAYLAARGRPAKSVFTVHNLAYQGMFYAHHMNDIQLPWSFFNIHGLEFNGQISFLKAGLYYADHITAVSPTYAREITEPQFAYGMEGLLQQRHREGRLSGVLNGVDEKIWSPETDLLLASRYTRDTLEDKAENKRQLQIAMGLKVDDKVPLFAVVSRLTSQKGLDLVLEALPGLLEQGGQLALLGAGDPVLQEGFLAAAAEYPGQVGVQIGYHEAFSHRIMGGADVILVPSRFEPCGLTQLYGLKYGTLPLVRRTGGLADTVSDCSLENLADGVASGFVFEDSNAWSLLRAIRRAFVLWSRPSLWRFVQRQAMAMDFSWQVAAKSYRELYYRLK [P0A6U8] | 6.98 ± 0.61 h | 6.92 ± 1.1 h | 5.83 ± 0.06 h | 3.03 ± 0.11 h | 6.7 ± 0.36 h | 11.4 ± 0.49 h | 6.32 ± 0.3 h | 6.028 ± 0.0091 h | 6.21 ± 0.21 h | 13.2 ± 2 h | 12.4 ± 0.65 h | 5.806 ± 0.035 h
MANSITADEIREQFSQAMSAMYQQEVPQYGTLLELVADVNLAVLENNPQLHEKMVNADELARLNVERHGAIRVGTAQELATLRRMFAIMGMYPVSYYDLSQAGVPVHSTAFRPIDDASLARNPFRVFTSLLRLELIENEILRQKAAEILRQRDIFTPRCRQLLEEYEQQGGFNETQAQEFVQEALETFRWHQSATVDEETYRALHNEHRLIADVVCFPGCHINHLTPRTLDIDRVQSMMPECGIEPKILIEGPPRREVPILLRQTSFKALEETVLFAGQKQGTHTARFGEIEQRGVALTPKGRQLYDDLLRNAGTGQDNLTHQMHLQETFRTFPDSEFLMRQQGLAWFRYRLTPSGEAHRQAIHPGDDPQPLIERGWVVAQPITYEDFLPVSAAGIFQSNLGNETQTRSHGNASREAFEQALGCPVLDEFQLYQEAEERSKRRCGLL | 4.93 ± 0.48 h | 4.86 ± 2.3 h | 3.09 ± 0.13 h | 1.93 ± 0.29 h | 3.5 ± 0.098 h | 5.086 ± 0.02 h | 3.15 ± 0.84 h | 3.34 h | 3.41 ± 0.23 h | 4.83 ± 0.42 h | 6.32 ± 0.42 h | 3.29 ± 0.28 h
